Measured values: paper PMC5712524, “Mechanism of early light signaling by the carboxy-terminal output module of Arabidopsis phytochrome B” (Nature Communications, 2017)

Legend:
[1] = molecular target: T1, GST-PIF3 (Arabidopsis, UniProt O80536 1-524); assay: pull-down; GST pull-down: immobilized GST-PIF3 pulls down HA-tagged PHYB in the Pr form; anti-HA immunoblot; procedure as ref. 33; conditions: one partner purified
T1 construct: the construct is not described here
T1 sequence (looked up): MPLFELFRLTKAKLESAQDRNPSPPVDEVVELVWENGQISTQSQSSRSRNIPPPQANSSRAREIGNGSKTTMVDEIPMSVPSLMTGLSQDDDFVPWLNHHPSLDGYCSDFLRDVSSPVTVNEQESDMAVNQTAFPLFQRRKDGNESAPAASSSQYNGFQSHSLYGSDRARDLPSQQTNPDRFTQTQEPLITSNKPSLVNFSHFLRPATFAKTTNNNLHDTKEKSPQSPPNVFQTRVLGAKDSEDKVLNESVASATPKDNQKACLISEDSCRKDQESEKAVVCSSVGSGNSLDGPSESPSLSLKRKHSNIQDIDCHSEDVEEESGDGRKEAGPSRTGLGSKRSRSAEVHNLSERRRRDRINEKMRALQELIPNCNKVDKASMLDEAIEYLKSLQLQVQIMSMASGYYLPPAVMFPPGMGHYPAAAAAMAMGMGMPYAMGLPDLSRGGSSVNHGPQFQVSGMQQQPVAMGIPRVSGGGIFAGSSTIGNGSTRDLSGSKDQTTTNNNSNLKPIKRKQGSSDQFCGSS

[2] = molecular target: the molecule itself; assay: co-IP; in vitro co-immunoprecipitation: HA-tagged bait and Myc-tagged prey co-expressed in TNT T7 reticulocyte lysate, anti-HA Affinity Matrix, E buffer (50 mM Tris-HCl pH 7.5, 100 mM NaCl, 1 mM EDTA, 1 mM EGTA, 1% DMSO, 2 mM DTT, 0.1% Nonidet P-40), 4 °C 2 h; anti-Myc immunoblot
[3] = molecular target: T1, GST-PIF3; assay: pull-down; GST pull-down: immobilized GST-PIF3 pulls down HA-tagged PHYB as apoprotein; anti-HA immunoblot; procedure as ref. 33; conditions: one partner purified

B1: PHYB18-HA (PHYB D1040V), Pr or Pfr form (natural protein, Arabidopsis, UniProt P14713 1-1172, looked up)
chain: MVSGVGGSGGGRGGGRGGEEEPSSSHTPNNRRGGEQAQSSGTKSLRPRSNTESMSKAIQQYTVDARLHAVFEQSGESGKSFDYSQSLKTTTYGSSVPEQQITAYLSRIQRGGYIQPFGCMIAVDESSFRIIGYSENAREMLGIMPQSVPTLEKPEILAMGTDVRSLFTSSSSILLERAFVAREITLLNPVWIHSKNTGKPFYAILHRIDVGVVIDLEPARTEDPALSIAGAVQSQKLAVRAISQLQALPGGDIKLLCDTVVESVRDLTGYDRVMVYKFHEDEHGEVVAESKRDDLEPYIGLHYPATDIPQASRFLFKQNRVRMIVDCNATPVLVVQDDRLTQSMCLVGSTLRAPHGCHSQYMANMGSIASLAMAVIINGNEDDGSNVASGRSSMRLWGLVVCHHTSSRCIPFPLRYACEFLMQAFGLQLNMELQLALQMSEKRVLRTQTLLCDMLLRDSPAGIVTQSPSIMDLVKCDGAAFLYHGKYYPLGVAPSEVQIKDVVEWLLANHADSTGLSTDSLGDAGYPGAAALGDAVCGMAVAYITKRDFLFWFRSHTAKEIKWGGAKHHPEDKDDGQRMHPRSSFQAFLEVVKSRSQPWETAEMDAIHSLQLILRDSFKESEAAMNSKVVDGVVQPCRDMAGEQGIDELGAVAREMVRLIETATVPIFAVDAGGCINGWNAKIAELTGLSVEEAMGKSLVSDLIYKENEATVNKLLSRALRGDEEKNVEVKLKTFSPELQGKAVFVVVNACSSKDYLNNIVGVCFVGQDVTSQKIVMDKFINIQGDYKAIVHSPNPLIPPIFAADENTCCLEWNMAMEKLTGWSRSEVIGKMIVGEVFGSCCMLKGPDALTKFMIVLHNAIGGQDTDKFPFPFFDRNGKFVQALLTANKRVSLEGKVIGAFCFLQIPSPELQQALAVQRRQDTECFTKAKELAYICQVIKNPLSGMRFANSLLEATDLNEDQKQLLETSVSCEKQISRIVGDMDLESIEDGSFVLKREEFFLGSVINAIVSQAMFLLRDRGLQLIRDIPEEIKSIEVFGVQIRIQQLLAEFLLSIIRYAPSQEWVEIHLSQLSKQMADGFAAIRTEFRMACPGEGLPPELVRDMFHSSRWTSPEGLGLSVCRKILKLMNGEVQYIRESERSYFLIILELPVPRKRPLSTASGSGDMMLMMPY
modifications: Pr or Pfr form (chromophore used not named for this experiment)
notes: Same chain as m21, with chromophore; not shown: HA, C-terminal, kept
- interaction relative to that of PHYB-HA [1]: ~0.33 fraction of wild type

B2: full-length PHYB18 (PHYB D1040V), N-terminal HA- or Myc-tagged (natural protein, Arabidopsis, UniProt P14713 1-1172, looked up)
chain: B1 chain
notes: Two differently tagged copies: the bait copy has the HA tag, the prey copy the Myc tag (each copy has one tag only); also called HA-PHYB18; Myc-PHYB18; source: in vitro translated (TNT T7 Coupled Reticulocyte Lysate System), co-expressed; not shown: HA, N-terminal, kept; Myc, N-terminal, kept
- fold reduction of the interaction against wild-type PHYB [2]: 5 fold

B3: PHYB18-HA (PHYB D1040V), apoprotein (natural protein, Arabidopsis, UniProt P14713 1-1172, looked up)
chain: B1 chain
notes: not shown: HA, C-terminal, kept
- interaction relative to that of PHYB-HA [3]: ~0.33 fraction of wild type
